The target of experiment [1] is huPA-H99Y (full length human urokinase-type plasminogen activator with H99Y) (human). In words: SPR; Biacore T200; uPA variant amine-coupled to a CM5 chip (about 500 RU); peptides injected in HBS with 0.1% BSA, 30 µL/min, 25°C, pH 7.4; 1:1 kinetic fit; KD = koff/kon.
The target of experiment [2] is recombinant catalytic domain of huPA-H99Y (residues 159-411) (human) (UniProt P00749). In words: ITC; MicroCal ITC200; peptide injected into 5-50 µM huPA-H99Y catalytic domain; 20 mM sodium phosphate pH 7.4, 140 mM NaCl, 25°C; one-binding-site model. (In ITC the heat of successive injections is recorded.)
Another experiment has as its target huPA-H99Y-Q192A (human). In words: enzyme inhibition (steady state, chromogenic substrate S-2444); about 2 nM enzyme (purified or conditioned medium of transfected cells) pre-incubated 15 min with varied peptide in HBS (10 mM HEPES pH 7.4, 140 mM NaCl) with 0.1% BSA at 37°C; substrate about KM; fit for competitive inhibition; highest peptide concentration 400 µM.

A further experiment addresses huPA-H99Y-V41A (human). The description is as above.
For experiment [3], the target named is huPA-H99Y (full length human urokinase-type plasminogen activator with H99Y) (human). Described as above.
Another experiment addresses huPA-H99Y-R35A (human). The description is as above.
The target in a further experiment is huPA-H99Y-K143A (human). The experiment is described as above.

The values below come from publication PMC4278837, “A Cyclic Peptidic Serine Protease Inhibitor: Increasing Affinity by Increasing Peptide Flexibility” (PLoS ONE, 2014).

Take Mupain-1 D9A (peptide): the Kd (commonly the free concentration of one partner at which half of the binding sites on the other are occupied at equilibrium, for simple one-to-one binding) in experiment [1] stood at 1.41 µM; in experiment [2] it was 1.17 µM. For the same substance, in experiment [1], the koff (commonly a measure of how fast the partners let go of each other) was 0.366 s⁻¹. Also, the kon (in general, a measure of how fast the partners come together) in experiment [1] is 260000 M⁻¹ s⁻¹. Besides, the dH in experiment [2] was -9.06 kcal/mol. The stoichiometry N (as a rule, a count of units in the complex or per binding partner) in experiment [2] turned out to be 1.03. For the same substance, the inhibition constant Ki – broadly, a dissociation constant, usually derived from enzyme kinetics or from competition with a known ligand – in the experiment with huPA-H99Y-Q192A (human) came to 4.85 µM; with huPA-H99Y-V41A (human), 7.2 µM; in experiment [3] it was 5.99 µM; in the experiment with huPA-H99Y-R35A (human) it was 2.68 µM; with huPA-H99Y-K143A (human) it was 8.74 µM.
Mupain-1 L8A (peptide) registered a Ki in experiment [3] of 19.1 µM.
In turn, Mupain-1 P2A (peptide) showed a Ki in experiment [3] greater than 1000 µM.
The substance Mupain-1 R6A (peptide) gave a Ki in experiment [3] greater than 1000 µM.
In experiment [3], Mupain-1 S5A (peptide) came in with a Ki greater than 1000 µM.
Same read-out and setting: in the case of Mupain-1 Y4A (peptide) it was greater than 1000 µM; in that of Mupain-1 Y7A (peptide), 44 µM.
In experiment [1], mupain-1 (peptide) displayed a Kd of 14.1 µM, a koff of 0.802 s⁻¹ and a kon of 56900 M⁻¹ s⁻¹. Further, in experiment [2], the Kd turned out to be 5.04 µM, the dH was -8.72 kcal/mol and the stoichiometry N worked out at 1.09. For the same substance, the Ki with huPA-H99Y-Q192A (human) is 33.2 µM. This substance also had a Ki with huPA-H99Y-V41A (human) of 32.4 µM. This substance also returned a Ki with huPA-H99Y-R35A (human) of 39.5 µM. The Ki with huPA-H99Y-K143A (human) stood at 56.6 µM.
